Assay [1] deals with T1, human FcγRIa extracellular domain with C-terminal His tag (human, UniProt P12314 16-292).
T1 construct: extracellular domain
As to the kind of experiment: SPR (Biacore). Background: SPR reads the build-up and loss of mass on a sensor chip optically.

For assay [2], the target named is T2, human FcγRIIa type H extracellular domain with C-terminal His tag (human, UniProt P12318 34-217).
T2 construct: extracellular domain; also called FcγRIIaH; FcγRIIa(H)
T2 sequence (looked up): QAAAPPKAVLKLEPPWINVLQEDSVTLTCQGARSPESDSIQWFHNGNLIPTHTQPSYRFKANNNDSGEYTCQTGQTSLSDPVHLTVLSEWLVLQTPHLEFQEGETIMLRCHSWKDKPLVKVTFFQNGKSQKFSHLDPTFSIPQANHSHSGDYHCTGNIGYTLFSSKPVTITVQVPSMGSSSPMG
As to the kind of experiment: SPR (Biacore).

Assay [3] addresses T3, human FcγRIIa type R extracellular domain with C-terminal His tag (human, UniProt P12318 34-217).
T3 construct: extracellular domain; also called FcγRIIaR; FcγRIIa(R)
T3 sequence (looked up): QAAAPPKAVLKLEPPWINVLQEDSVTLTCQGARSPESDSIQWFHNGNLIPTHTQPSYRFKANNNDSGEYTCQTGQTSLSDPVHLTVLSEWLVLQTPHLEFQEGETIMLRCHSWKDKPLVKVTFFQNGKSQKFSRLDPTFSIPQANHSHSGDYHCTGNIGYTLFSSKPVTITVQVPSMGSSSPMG
The experiment in a line: SPR (Biacore).

The target of assay [4] is T4, human FcγRIIb extracellular domain with C-terminal His tag (human, UniProt P31994 43-217).
T4 construct: extracellular domain
T4 sequence (looked up): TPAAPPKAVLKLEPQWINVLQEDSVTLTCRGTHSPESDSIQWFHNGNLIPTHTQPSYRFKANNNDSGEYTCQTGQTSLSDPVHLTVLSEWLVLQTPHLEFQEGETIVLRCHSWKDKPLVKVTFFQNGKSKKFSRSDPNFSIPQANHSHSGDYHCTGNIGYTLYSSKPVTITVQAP
As to the kind of experiment: SPR (Biacore).

For assay [5], the target named is T4, human FcγRIIb extracellular domain with …. As to the kind of experiment: SPR (Biacore), ratio of KDs.
The target of assay [6] is T3, human FcγRIIa type R extracellular …. The experiment in a line: SPR (Biacore), parent IL6R-B3/IL6R-L.
The target of assay [7] is T4, human FcγRIIb extracellular domain with …. The experiment in a line: SPR (Biacore), parent IL6R-B3/IL6R-L.

From patent publication US20220389118A1 (Chugai, published 2022) come the findings set out here.

The Kd is the free concentration of one partner at which half of the binding sites on the other are occupied at equilibrium, for simple one-to-one binding. A low value points to a tighter complex.

T1 sequence (P12314 16-292): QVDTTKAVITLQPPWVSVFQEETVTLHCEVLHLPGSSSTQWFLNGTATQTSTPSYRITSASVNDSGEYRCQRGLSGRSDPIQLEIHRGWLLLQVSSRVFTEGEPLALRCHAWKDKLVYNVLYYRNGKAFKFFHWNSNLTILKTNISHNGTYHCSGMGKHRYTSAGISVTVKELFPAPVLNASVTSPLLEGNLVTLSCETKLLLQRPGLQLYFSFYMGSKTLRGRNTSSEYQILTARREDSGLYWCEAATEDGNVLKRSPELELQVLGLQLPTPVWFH

B1: IL6R-BP536/IL6R-L (antibody, human IgG1, kappa)
heavy: QVQLQESGPGLVKPSETLSLTCAVSGHSISHDHAWSWVRQPPGEGLEWIGFISYSGITNYNPSLQGRVTISRDNSKNTLYLQMNSLRAEDTAVYYCARSLARTTAMDYWGEGTLVTVSSASTKGPSVFPLAPSSKSTSGGTAALGCLVKDYFPEPVTVSWNSGALTSGVHTFPAVLQSSGLYSLSSVVTVPSSSLGTQTYICNVNHKPSNTKVDKKVEPKSCDKTHTCPPCPAPDLLGDDSVFLFPPKPKDTLMISRTPEVTCVVIDVSEEDGEVKFNWYVDGVEVHNAKTKPREEQDNSTYRVVSVLTVLHQDWLNGKEYKCKVSNKGLPRPIEKTISKAKGQPREPQVYTLPPSRDELTKNQVSLTCLVKGFYPSDIAVEWESNGQPENNYKTTPMVLDSDGSFFLYSKLTVDKSRWQQGNVFSCSVMHEALHNHYTQESLSLSP
light: not shown
notes: copies: 2 + 2
Take B1: the dissociation constant Kd is 8.9 nM in assay [1], 1300 nM in assay [2], 79 nM in assay [3] and 3 nM in assay [4]. Further, the “KD(IIaH)/KD(IIb)” value in assay [5] was determined as 438. The “KD(IIaR)/KD(IIb)” value in assay [5] is 26.6. Also, the “KD(IIaR) parent/KD(IIaR) altered polypeptide” value in assay [6] was 13.9. In addition, the “KD(IIb) parent/KD(IIb) altered polypeptide” value in assay [7] was determined as 1040.

B2: IL6R-BP539/IL6R-L (antibody, human IgG1, kappa)
heavy: QVQLQESGPGLVKPSETLSLTCAVSGHSISHDHAWSWVRQPPGEGLEWIGFISYSGITNYNPSLQGRVTISRDNSKNTLYLQMNSLRAEDTAVYYCARSLARTTAMDYWGEGTLVTVSSASTKGPSVFPLAPSSKSTSGGTAALGCLVKDYFPEPVTVSWNSGALTSGVHTFPAVLQSSGLYSLSSVVTVPSSSLGTQTYICNVNHKPSNTKVDKKVEPKSCDKTHTCPPCPAPELLGDDSVFLFPPKPKDTLMISRTPEVTCVVIDVGEEDGPVKFNWYVDGVEVHNAKTKPREEQDNSTYRVVSVLTVLHQDWLNGKEYKCKVSNKALPRPIEKTISKAKGQPREPQVYTLPPSRDELTKNQVSLTCLVKGFYPSDIAVEWESNGQPENNYKTTPPVLDSDGSFFLYSKLTVDKSRWQQGNVFSCSVMHEALHNHYTQESLSLSP
light: not shown
notes: copies: 2 + 2
As to B2, the Kd was 64 nM in assay [1], 5600 nM in assay [2], 330 nM in assay [3] and 8.4 nM in assay [4]. The “KD(IIaH)/KD(IIb)” value in assay [5] was 667. In addition, the “KD(IIaR)/KD(IIb)” value in assay [5] amounted to 39. Further, the “KD(IIaR) parent/KD(IIaR) altered polypeptide” value in assay [6] amounted to 3.4. Further, in assay [7], the “KD(IIb) parent/KD(IIb) altered polypeptide” value was found to be 369.

B3: IL6R-BP551/IL6R-L (antibody, human IgG1, kappa)
heavy: QVQLQESGPGLVKPSETLSLTCAVSGHSISHDHAWSWVRQPPGEGLEWIGFISYSGITNYNPSLQGRVTISRDNSKNTLYLQMNSLRAEDTAVYYCARSLARTTAMDYWGEGTLVTVSSASTKGPSVFPLAPSSKSTSGGTAALGCLVKDYFPEPVTVSWNSGALTSGVHTFPAVLQSSGLYSLSSVVTVPSSSLGTQTYICNVNHKPSNTKVDKKVEPKSCDKTHTCPPCPAPELLGDDSVFLFPPKPKDTLMISRTPEVTCVVIDVSEEDGDVKFNWYVDGVEVHNAKTKPREEQDNSTYRVVSVLTVLHQDWLNGKEYKCKVSNKALPRPIEKTISKAKGQPREPQVYTLPPSRDELTKNQVSLTCLVKGFYPSDIAVEWESNGQPENNYKTTPPVLDSDGSFFLYSKLTVDKSRWQQGNVFSCSVMHEALHNHYTQESLSLSP
light: not shown
notes: copies: 2 + 2
As to B3, the Kd in assay [1] worked out at 32 nM; in assay [2], 2800 nM; in assay [3], 250 nM; in assay [4], 6.4 nM. Moreover, the “KD(IIaH)/KD(IIb)” value in assay [5] is 436. Moreover, in assay [5], the “KD(IIaR)/KD(IIb)” value worked out at 38.1. For the same molecule, in assay [6], the “KD(IIaR) parent/KD(IIaR) altered polypeptide” value was determined as 4.5. Also, the “KD(IIb) parent/KD(IIb) altered polypeptide” value in assay [7] came out at 482.

B4: IL6R-BP540/IL6R-L (antibody, human IgG1, kappa)
heavy: QVQLQESGPGLVKPSETLSLTCAVSGHSISHDHAWSWVRQPPGEGLEWIGFISYSGITNYNPSLQGRVTISRDNSKNTLYLQMNSLRAEDTAVYYCARSLARTTAMDYWGEGTLVTVSSASTKGPSVFPLAPSSKSTSGGTAALGCLVKDYFPEPVTVSWNSGALTSGVHTFPAVLQSSGLYSLSSVVTVPSSSLGTQTYICNVNHKPSNTKVDKKVEPKSCDKTHTCPPCPAPELLGDDSVFLFPPKPKDTLMISRTPEVTCVVIDVSEEDGPVKFNWYVDGVEVHNAKTKPREEQDNSTYRVVSVLTVLHQDWLNGKEYKCKVSNKALPRPIEKTISKAKGQPREPQVYTLPPSRDELTKNQVSLTCLVKGFYPSDIAVEWESNGQPENNYKTTPPVLDSDGSFFLYSKLTVDKSRWQQGNVFSCSVMHEALHNHYTQESLSLSP
light: not shown
notes: copies: 2 + 2
On to B4, for which the Kd in assay [1] was 96 nM; in assay [2], 4600 nM; in assay [3], 210 nM; in assay [4], 5.7 nM. For the same molecule, the “KD(IIaH)/KD(IIb)” value in assay [5] was found to be 803. Moreover, in assay [5], the “KD(IIaR)/KD(IIb)” value was found to be 36.6. For the same molecule, the “KD(IIaR) parent/KD(IIaR) altered polypeptide” value in assay [6] stood at 5.2. In assay [7], the “KD(IIb) parent/KD(IIb) altered polypeptide” value came to 541.

B5: IL6R-BP556/IL6R-L (antibody, human IgG1, kappa)
heavy: QVQLQESGPGLVKPSETLSLTCAVSGHSISHDHAWSWVRQPPGEGLEWIGFISYSGITNYNPSLQGRVTISRDNSKNTLYLQMNSLRAEDTAVYYCARSLARTTAMDYWGEGTLVTVSSASTKGPSVFPLAPSSKSTSGGTAALGCLVKDYFPEPVTVSWNSGALTSGVHTFPAVLQSSGLYSLSSVVTVPSSSLGTQTYICNVNHKPSNTKVDKKVEPKSCDKTHTCPPCPAPELLGDDSVFLFPPKPKDTLMISRTPEVTCVVIDVGEEDGEVKFNWYVDGVEVHNAKTKPREEQDNSTYRVVSVLTVLHQDWLNGKEYKCKVSNKALPRPIEKTISKAKGQPREPQVYTLPPSRDELTKNQVSLTCLVKGFYPSDIAVEWESNGQPENNYKTTPPVLDSDGSFFLYSKLTVDKSRWQQGNVFSCSVMHEALHNHYTQESLSLSP
light: not shown
notes: copies: 2 + 2
As to B5, the Kd in assay [1] is 43 nM; in assay [2], 5800 nM; in assay [3], 300 nM; in assay [4], 8.4 nM. Also, the “KD(IIaH)/KD(IIb)” value in assay [5] was 692. Further, the “KD(IIaR)/KD(IIb)” value in assay [5] is 35.4. In addition, in assay [6], the “KD(IIaR) parent/KD(IIaR) altered polypeptide” value stood at 3.7. Also, the “KD(IIb) parent/KD(IIb) altered polypeptide” value in assay [7] came to 370.

B6: IL6R-BP550/IL6R-L (antibody, human IgG1, kappa)
heavy: QVQLQESGPGLVKPSETLSLTCAVSGHSISHDHAWSWVRQPPGEGLEWIGFISYSGITNYNPSLQGRVTISRDNSKNTLYLQMNSLRAEDTAVYYCARSLARTTAMDYWGEGTLVTVSSASTKGPSVFPLAPSSKSTSGGTAALGCLVKDYFPEPVTVSWNSGALTSGVHTFPAVLQSSGLYSLSSVVTVPSSSLGTQTYICNVNHKPSNTKVDKKVEPKSCDKTHTCPPCPAPELLGDDSVFLFPPKPKDTLMISRTPEVTCVVIDVGEEDGDVKFNWYVDGVEVHNAKTKPREEQDNSTYRVVSVLTVLHQDWLNGKEYKCKVSNKALPRPIEKTISKAKGQPREPQVYTLPPSRDELTKNQVSLTCLVKGFYPSDIAVEWESNGQPENNYKTTPPVLDSDGSFFLYSKLTVDKSRWQQGNVFSCSVMHEALHNHYTQESLSLSP
light: not shown
notes: copies: 2 + 2
In the case of B6, the dissociation constant (Kd) in assay [1] was determined as 25 nM; in assay [2] it was 5000 nM; in assay [3], 340 nM; in assay [4], 7.6 nM. In addition, the “KD(IIaH)/KD(IIb)” value in assay [5] stood at 655. In addition, the “KD(IIaR)/KD(IIb)” value in assay [5] was 44.2. Besides, in assay [6], the “KD(IIaR) parent/KD(IIaR) altered polypeptide” value amounted to 3.3. Besides, in assay [7], the “KD(IIb) parent/KD(IIb) altered polypeptide” value came to 406.

B7: IL6R-BP538/IL6R-L (antibody, human IgG1, kappa)
heavy: QVQLQESGPGLVKPSETLSLTCAVSGHSISHDHAWSWVRQPPGEGLEWIGFISYSGITNYNPSLQGRVTISRDNSKNTLYLQMNSLRAEDTAVYYCARSLARTTAMDYWGEGTLVTVSSASTKGPSVFPLAPSSKSTSGGTAALGCLVKDYFPEPVTVSWNSGALTSGVHTFPAVLQSSGLYSLSSVVTVPSSSLGTQTYICNVNHKPSNTKVDKKVEPKSCDKTHTCPPCPAPELLGDDSVFLFPPKPKDTLMISRTPEVTCVVIDVSEEDGEVKFNWYVDGVEVHNAKTKPREEQYNSTYRVVSVLTVLHQDWLNGKEYKCKVSNKALPRPIEKTISKAKGQPREPQVYTLPPSRDELTKNQVSLTCLVKGFYPSDIAVEWESNGQPENNYKTTPPVLDSDGSFFLYSKLTVDKSRWQQGNVFSCSVMHEALHNHYTQESLSLSP
light: not shown
notes: copies: 2 + 2
As to B7, the Kd was 55 nM in assay [1], 3000 nM in assay [2], 200 nM in assay [3] and 5.3 nM in assay [4]. The “KD(IIaH)/KD(IIb)” value in assay [5] was 568. The “KD(IIaR)/KD(IIb)” value in assay [5] turned out to be 38.6. Moreover, the “KD(IIaR) parent/KD(IIaR) altered polypeptide” value in assay [6] amounted to 5.4. In assay [7], the “KD(IIb) parent/KD(IIb) altered polypeptide” value was 587.
